Laboratory results published in the Human Domainome abundance scans (Beltran et al. 2025).
± gives the uncertainty stated by the source.

B1: Far upstream element-binding protein 1, residues 184 to 257; numbered along this chain, Q96AE4 (parent)
chain: GNAVQEIMIPASKAGLVIGKGGETIKQLQERAGVKMVMIQDGPQNTGADKPLRITGDPYKVQQAKEMVLELIRD

Variants of: B1
Assay: abundance fitness (aPCA) (normalised: wild type 0, dead -1); higher = more abundant; growth selection in yeast, the domain comes from the species named
Settings: Homo sapiens

In order of rising abundance fitness:
1. GNAVQEIMIPASKAGLVIGKGGETIKQLQERAGVKMVMIQDGPQNTGADKPLRITGDPYKVQQAKEMWLELIRD [V68W]  -0.963 ± 0.061
2. GNAVQEIMIPASKAGLVIGKGGETIKQLQERAGVKMVMIQDGPQNTGADKPLRITGDPYKVQQAKEMYLELIRD [V68Y]  -0.753 ± 0.067
3. GNAVQEIMIPASKAGLVIGKGGETIKQLQERAGVKMVMIQDGPQNTGADKPLRITGDPYKVQQAKEMFLELIRD [V68F]  -0.658 ± 0.057
4. GNAVQEIMIPASKAGLVIGKGGETIKQLQERAGVKMVMIQDGPQNTGADKPLRITGDPYKVQQAKEMRLELIRD [V68R]  -0.562 ± 0.031
5. GNAVQEIMIPASKAGLVIGKGGETIKQLQERAGVKMVMIQDGPQNTGADKPLRITGDPYKVQQAKEMHLELIRD [V68H]  -0.495 ± 0.055
6. GNAVQEIMIPASKAGLVIGKGGETIKQLQERAGVKMVMIQDGPQNTGADKPLRITGDPYKVQQAKEMGLELIRD [V68G]  -0.48 ± 0.031
7. GNAVQEIMIPASKAGLVIGKGGETIKQLQERAGVKMVMIQDGPQNTGADKPLRITGDPYKVQQAKEMQLELIRD [V68Q]  -0.441 ± 0.044
8. GNAVQEIMIPASKAGLVIGKGGETIKQLQERAGVKMVMIQDGPQNTGADKPLRITGDPYKVQQAKEMPLELIRD [V68P]  -0.428 ± 0.047
9. GNAVQEIMIPASKAGLVIGKGGETIKQLQERAGVKMVMIQDGPQNTGADKPLRITGDPYKVQQAKEMELELIRD [V68E]  -0.427 ± 0.035
10. GNAVQEIMIPASKAGLVIGKGGETIKQLQERAGVKMVMIQDGPQNTGADKPLRITGDPYKVQQAKEMSLELIRD [V68S]  -0.425 ± 0.034
11. GNAVQEIMIPASKAGLVIGKGGETIKQLQERAGVKMVMIQDGPQNTGADKPLRITGDPYKVQQAKEMKLELIRD [V68K]  -0.41 ± 0.039
12. GNAVQEIMIPASKAGLVIGKGGETIKQLQERAGVKMVMIQDGPQNTGADKPLRITGDPYKVQQAKEMNLELIRD [V68N]  -0.385 ± 0.047
13. GNAVQEIMIPASKAGLVIGKGGETIKQLQERAGVKMVMIQDGPQNTGADKPLRITGDPYKVQQAKEMDLELIRD [V68D]  -0.359 ± 0.041
14. GNAVQEIMIPASKAGLVIGKGGETIKQLQERAGVKMVMIQDGPQNTGADKPLRITGDPYKVQQAKEMVLVLIRD [E70V]  -0.339 ± 0.033
15. GNAVQEIMIPASKAGLVIGKGGETIKQLQERAGVKMVMIQDGPQNTGADKPLRITGDPYKVQQAKEMVLFLIRD [E70F]  -0.314 ± 0.049
16. GNAVQEIMIPASKAGLVIGKGGETIKQLQERAGVKMVMIQDGPQNTGADKPLRITGDPYKVQQAKEMVLPLIRD [E70P]  -0.308 ± 0.04
17. GNAVQEIMIPASKAGLVIGKGGETIKQLQERAGVKMVMIQDGPQNTGADKPLRITGDPYKVQQAKEMALELIRD [V68A]  -0.221 ± 0.033
18. GNAVQEIMIPASKAGLVIGKGGETIKQLQERAGVKMVMIQDGPQNTGADKPLRITGDPYKVQQAKEMVLLLIRD [E70L]  -0.209 ± 0.03
19. GNAVQEIMIPASKAGLVIGKGGETIKQLQERAGVKMVMIQDGPQNTGADKPLRITGDPYKVQQAKEMVLYLIRD [E70Y]  -0.196 ± 0.044
20. GNAVQEIMIPASKAGLVIGKGGETIKQLQERAGVKMVMIQDGPQNTGADKPLRITGDPYKVQQAKEMMLELIRD [V68M]  -0.156 ± 0.034
21. GNAVQEIMIPASKAGLVIGKGGETIKQLQERAGVKMVMIQDGPQNTGADKPLRITGDPYKVQQAKEMLLELIRD [V68L]  -0.154 ± 0.032
22. GNAVQEIMIPASKAGLVIGKGGETIKQLQERAGVKMVMIQDGPQNTGADKPLRITGDPYKVQQAKEMVLMLIRD [E70M]  -0.152 ± 0.04
23. GNAVQEIMIPASKAGLVIGKGGETIKQLQERAGVKMVMIQDGPQNTGADKPLRITGDPYKVQQAKEMTLELIRD [V68T]  -0.143 ± 0.034
24. GNAVQEIMIPASKAGLVIGKGGETIKQLQERAGVKMVMIQDGPQNTGADKPLRITGDPYKVQQAKEMVLNLIRD [E70N]  -0.127 ± 0.045
25. GNAVQEIMIPASKAGLVIGKGGETIKQLQERAGVKMVMIQDGPQNTGADKPLRITGDPYKVQQAKEVVLELIRD [M67V]  -0.126 ± 0.029
26. GNAVQEIMIPASKAGLVIGKGGETIKQLQERAGVKMVMIQDGPQNTGADKPLRITGDPYKVQQAKEWVLELIRD [M67W]  -0.124 ± 0.033
27. GNAVQEIMIPASKAGLVIGKGGETIKQLQERAGVKMVMIQDGPQNTGADKPLRITGDPYKVQQAKEMVLSLIRD [E70S]  -0.106 ± 0.031
28. GNAVQEIMIPASKAGLVIGKGGETIKQLQERAGVKMVMIQDGPQNTGADKPLRITGDPYKVQQAKEMVLCLIRD [E70C]  -0.105 ± 0.039
29. GNAVQEIMIPASKAGLVIGKGGETIKQLQERAGVKMVMIQDGPQNTGADKPLRITGDPYKVQQAKEYVLELIRD [M67Y]  -0.088 ± 0.046
30. GNAVQEIMIPASKAGLVIGKGGETIKQLQERAGVKMVMIQDGPQNTGADKPLRITGDPYKVQQAKEMVLHLIRD [E70H]  -0.081 ± 0.05
31. GNAVQEIMIPASKAGLVIGKGGETIKQLQERAGVKMVMIQDGPQNTGADKPLRITGDPYKVQQAKEMVLQLIRD [E70Q]  -0.072 ± 0.038
32. GNAVQEIMIPASKAGLVIGKGGETIKQLQERAGVKMVMIQDGPQNTGADKPLRITGDPYKVQQAKEMVLRLIRD [E70R]  -0.063 ± 0.026
33. GNAVQEIMIPASKAGLVIGKGGETIKQLQERAGVKMVMIQDGPQNTGADKPLRITGDPYKVQQAKEMVLTLIRD [E70T]  -0.056 ± 0.037
34. GNAVQEIMIPASKAGLVIGKGGETIKQLQERAGVKMVMIQDGPQNTGADKPLRITGDPYKVQQAKEMVLGLIRD [E70G]  -0.044 ± 0.029
35. GNAVQEIMIPASKAGLVIGKGGETIKQLQERAGVKMVMIQDGPQNTGADKPLRITGDPYKVQQAKEMILELIRD [V68I]  -0.023 ± 0.044
36. GNAVQEIMIPASKAGLVIGKGGETIKQLQERAGVKMVMIQDGPQNTGADKPLRITGDPYKVQQAKEMVLKLIRD [E70K]  0.002 ± 0.036
37. GNAVQEIMIPASKAGLVIGKGGETIKQLQERAGVKMVMIQDGPQNTGADKPLRITGDPYKVQQAKEMVLDLIRD [E70D]  0.046 ± 0.046
